Assay results from patent publication US9121022B2, “Method for controlling herbicide-resistant plants” (priority 2010, dated 2015).

What was measured:
Format in all cases: in vivo
[1] = test system: Glyphosate-resistant Palmer amaranth plants having 49 or 63 copies EPSPS; experiment: salicylic acid pretreatment before dsRNA and glyphosate (Example 15); settings: 15 millimolar SA 1, 5, or 24 hours before dsRNA; 7 days after glyphosate
Experimental: Salicylic acid (SA) induces virus resistance in tobacco; see, e.g., Chivasa et al. (1997) Plant Cell, 19:547-557. Glyphosate-resistant Palmer amaranth plants having 49 or 63 copies EPSPS were pretreated with 15 millimolar SA. A solution of the four oligonucleotide-size “short” EPSPS dsRNA molecules (described in Example 1) was applied by hand at 1, 5, or 24 hours after treatment with SA, followed 72 hours later by spraying with glyphosate (1682 g acid equivalent per hectare of Roundup® WeatherMAX® brand herbicide).

[2] = test system: phytoene desaturase (PDS) gene in tomato (Solanum lycopersicum); experiment: topical PDS dsRNA on tomato, bleaching and stunting (Example 25); settings: 2.5 micromolar, 40 microliters per plant
Text: A 201 nucleotide dsRNA polynucleotide with an anti-sense strand capable of hybridizing to the RNA encoded by the sequence […] […] […] (SEQ ID NO:60) which correspond to the nucleotides at positions 1724-1923 of the mRNA transcribed from the tomato PDS gene sequence (SEQ ID NO:59) was synthesized by RT PCR using oligonucleotide primers with the sequences […] (SEQ ID NO:61, sense primer) and […] (SEQ ID NO:62, anti-sense primer). A 2.5 micromolar dsRNA solution was made with the 201 nucleotide dsRNA polynucleotide (SEQ ID NO:60) in 0.01% SILWET L-77® brand surfactant in 5 millimolar sodium phosphate buffer, pH 6.8.
Three-week old tomato seedlings were treated as follows. Two fully expanded leaves were dipped into a freshly made 0.1% SILWET L-77® brand surfactant solution in double-distilled water for a few seconds. The leaves were allowed to dry for 30 minutes to 1 hour. Each plant was then treated by applying 20 microliters dsRNA solution to the top surface of two SILWET® brand surfactant-treated leaves (total 40 microliters per plant). Control plants were treated with buffer. The plants were kept in a growth chamber for observation. FIG. 30 depicts the systemic silencing of the target gene PDS as evidenced by bleaching of the dsRNA-treated plants 30 days after topical treatment.

[3] = test system: Glyphosate-sensitive Palmer amaranth (Amaranthus palmeri) plants; experiment: HPPD, PPO and TIF anti-sense ssDNA with mesotrione, fomesafen or atrazine, plant height (Example 28, Tables 18 and 19); settings: four days after herbicide treatment
Experimental: The herbicidal activity of ssDNA polynucleotides that target the enzymes […] and protoporphyrinogen oxidase (PPO), and a transcription initiation factor (TIF), and their effect on the herbicide activity when used in combination with the herbicides mesotrione, fomesafen, and atrazine in Palmer amaranth was investigated.
Glyphosate-sensitive Palmer amaranth (Amaranthus palmeri) plants were grown in 4-inch square pots with Sun Gro® Redi-Earth seedling mix containing 3.5 kg/cubic meter Osmocote® 14-14-14 fertilizer in a greenhouse with 14 h photoperiod and a daytime temperature of 30 degrees Celsius and night temperature of 20 degrees Celsius. The plants were sub-irrigated as necessary.
Some plants were left untreated and were used as controls. […] Crop oil concentrate (COC) at 1% was added to all herbicide treatments.
Plant height was determined at four days after herbicide treatment. Data were collected from one experiment with four replications per treatment.

[4] = test system: glyphosate-resistant Palmer amaranth plants having 16 copies of EPSPS; experiment: EPSPS tiling-segment polynucleotides, plant height 11 days after herbicide (Example 21); settings: 0.01 nanomole DNA/plant; glyphosate 840 g ae/ha 48 hours later
Text: Twelve dsRNAs of approximately 250 bp each and having one strand of the dsRNA corresponding to the EPSPS tiled DNA sequences of SEQ ID NOS:41-52 (Table 8) were designed to cover in a tiling fashion the full coding sequence and part of the 5′ and 3′ untranslated regions of the Palmer amaranth EPSPS gene, as depicted in FIG. 25A.
The four oligonucleotide-size “short” EPSPS dsRNA molecules as described in Example 1 and FIG. 1 are located in the tiling segments 2, 3, 4, and 8 respectively, and are shown as light grey bars within those segments. The polynucleotides were synthesized in vitro transcription using a pBR322 vector with the EPSPS polynucleotides inserted at EcoRI and BamHI cloning sites; plasmid DNA was isolated with Qiagen Maxi prep kits and digested with EcoRI and BamHI restriction enzymes. The digested DNA solution was used in the treatment of the plants without further purification. […]

## O=C(O)c1ccccc1O [Salicylic acid]
[1]
  improvement of the effects of the dsRNAs and glyphosate activity (plant height): No improvement

B1: 201 nucleotide dsRNA polynucleotide: dsRNA to positions 1724-1923 of tomato PDS mRNA (SEQ ID NO:59) (nucleic acid)
chain: TCGCAGCGACTCAGAAATTATTGATGCAACGATGAAGGAACTAGCAACGCTTTTTCCTGATGAAATTTCAGCAGATCAAAGCAAAGCAAAAATATTGAAGTACCATGTTGTCAAAACTCCGAGGTCTGTTTATAAAACTGTGCCAGGTTGTGAACCCTGTCGGCCTTTACAAAGATCCCCAATAGAGGGGTTTTATTTAG
[2]
  growth compared to control plants: severely stunted
[2]; 30 days after treatment
  systemic silencing of PDS (FIG. 30): bleaching

B2: HPPD anti-sense ssDNA oligonucleotides: 8 HPPD anti-sense ssDNA oligonucleotides (SEQ ID NOS:141-148) (nucleic acid)
antisense 1: TCCGTAGCTTACATACCGAAG
antisense 2: TCCAAGTGAATAGGAGAAACA
antisense 3: AGCAGCTTCTGCGTCTTCTAC
antisense 4: ACAGCACGCACGCCAAGACCG
antisense 5: CGATGTAAGGAATTTGGTAAA
antisense 6: CGAGGGGATTGCAGCAGAAGA
antisense 7: GTAGGAGAATACGGTGAAGTA
antisense 8: GACCCCAAGAAAATCGTCTGC
modifications: DNA, backbone and methylation of C not given here
[3]
  growth reduction relative to the buffer-surfactant control: 32%

B3: combination of tiling segments 2, 5, 8, and 11: SEQ ID NOS: 42, 45, 48, 51 applied together (nucleic acid, listed as Amaranthus palmeri)
chain 1: CACCAACCCACTTTCTCTTTGCCCACCAAAACTTTGGTTTGGTAAGAACTAAGCCCTCTTCTTTCCCTTCTCTCTCTTAAAAGCCTAAAATCCACCTAACTTTTTCAGCCAACAAACAACGCCAAATTCAGAGGAAGAATAATGATGGCTCAAGCTACTACCATCAACAATGGTGTCCATACTGGTCAATTGCACCATACTTTACCCAAAACCCAGTTACCCAAATCTTCAAAAACTCTTAATT
chain 2: GAGGGTTGTGGTGGTCTGTTTCCTGTTGGTAAAGATGGAAAGGAAGAGATTCAACTTTTCCTTGGTAATGCAGGAACAGCGATGCGCCCATTGACAGCTGCGGTTGCCGTTGCTGGAGGAAATTCAAGTTATGTGCTTGATGGAGTACCAAGAATGAGGGAGCGCCCCATTGGGGATCTGGTAGCAGGTCTAAAGCAACTTGGTTCAGATGTAGATTGTTTTCTTGGCACAAATTGCCCTCCTGTTCGGG
chain 3: ACAAGCAGTTTACAGGGTGATGTAAAATTTGCCGAAGTTCTTGAGAAGATGGGTTGCAAGGTCACCTGGACAGAGAATAGTGTAACTGTTACTGGACCACCCAGGGATTCATCTGGAAAGAAACATCTGCGTGCTATCGACGTCAACATGAACAAAATGCCAGATGTTGCTATGACTCTTGCAGTTGTTGCCTTGTATGCAGATGGGCCCACCGCCATCAGAGATGTGGCTAGCTGGAGAGTGAAGGAAA
chain 4: TAATTATGAAATTCTTTGTATTATGTTTGTGAGATTTGAAGTAGCTTATAAATTACAATGTACTAAAGTCTAGAAATAAGTTATGTATCTTTTAAATCAATGAGAAATGCATACTTGAAAGGCTTGACCTTGTATTTGTGACCTAAAGAGTACTAACTTTGGAGTTTCCAACTCATTTGTTTATCTCATTTTTTTTTAATTTTTGATTTAAATTGTTTATTTTTATGAGTAATCATGTATCTTTCTTATTCTAACCAAATGTAATACTCCTTC
[4]
  efficacy (above-ground height 11 days after herbicide; FIGS. 25B, 25C): greatest efficacy

B4: combination of tiling segments 7, 8, and 9: SEQ ID NOS: 47, 48, 49 applied together (nucleic acid, listed as Amaranthus palmeri)
chain 1: TTGAAATGACAATAAAGTTGATGGAACGCTTTGGAGTATCCGTAGAACATAGTGATAGTTGGGACAGGTTCTACATTCGAGGTGGTCAGAAATACAAATCTCCTGGAAAGGCATATGTTGAGGGTGATGCTTCAAGTGCTAGCTACTTCCTAGCCGGAGCCGCCGTCACTGGTGGGACTGTCACTGTCAAGGGTTGTGGAACAAGCAGTTTACAGGGTGATGTAAAATTTGCCGAAGTTCTTGAGAAGAT
chain 2: ACAAGCAGTTTACAGGGTGATGTAAAATTTGCCGAAGTTCTTGAGAAGATGGGTTGCAAGGTCACCTGGACAGAGAATAGTGTAACTGTTACTGGACCACCCAGGGATTCATCTGGAAAGAAACATCTGCGTGCTATCGACGTCAACATGAACAAAATGCCAGATGTTGCTATGACTCTTGCAGTTGTTGCCTTGTATGCAGATGGGCCCACCGCCATCAGAGATGTGGCTAGCTGGAGAGTGAAGGAAA
chain 3: AGATGGGCCCACCGCCATCAGAGATGTGGCTAGCTGGAGAGTGAAGGAAACCGAACGGATGATTGCCATTTGCACAGAACTGAGAAAGCTTGGGGCAACAGTTGAGGAAGGATCTGATTACTGTGTGATCACTCCGCCTGAAAAGCTAAACCCCACCGCCATTGAAACTTATGACGATCACCGAATGGCCATGGCATTCTCTCTTGCTGCCTGTGCAGATGTTCCCGTCACTATCCTTGATCCGGGATGC
[4]
  efficacy (above-ground height 11 days after herbicide; FIGS. 25B, 25C): greatest efficacy
